Experimental findings from patent publication US20250340662A1 are described below.

In general, koff refers to the rate constant with which the complex falls apart. The kon is the second-order rate constant of association. The low end stands for slow association, the high end for fast association.

Experiment [1] addresses CD44v6 on cultured cancer cells (BHT-101, ACT-1, A431) (human) (UniProt P16070). The experiment can be described thus: LigandTracer, 177Lu-antibody on A431 cells.
The target of experiment [2] is T1, Human v6-peptide (human).
T1 sequence (peptide, N-terminal biotin): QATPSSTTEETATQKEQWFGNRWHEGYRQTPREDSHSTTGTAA
The experiment can be described thus: SPR SCK, biotin-peptide on SA chip, antibody injected.

Experiment [3] concerns the target Human CD44v6 iso4-Fc (human) (UniProt P16070). The experiment can be described thus: SPR SCK, antibody captured via anti-kappa, CD44v6-Fc injected.
Experiment [4] has as its target T1, Human v6-peptide (human). The experiment can be described thus: SPR SCK, biotin-peptide on SA chip, antibody injected; apparent KD.
Experiment [5] addresses Human CD44v6 iso4-Fc (human) (UniProt P16070). The experiment can be described thus: SPR SCK, antibody captured via anti-kappa, CD44v6-Fc injected; apparent KD.
Another experiment deals with FcyR1. The experiment can be described thus: SPR. (In general: Surface plasmon resonance follows binding to a sensor surface in real time, without labels.)
Chain of FcyR1 (P12314 16-292): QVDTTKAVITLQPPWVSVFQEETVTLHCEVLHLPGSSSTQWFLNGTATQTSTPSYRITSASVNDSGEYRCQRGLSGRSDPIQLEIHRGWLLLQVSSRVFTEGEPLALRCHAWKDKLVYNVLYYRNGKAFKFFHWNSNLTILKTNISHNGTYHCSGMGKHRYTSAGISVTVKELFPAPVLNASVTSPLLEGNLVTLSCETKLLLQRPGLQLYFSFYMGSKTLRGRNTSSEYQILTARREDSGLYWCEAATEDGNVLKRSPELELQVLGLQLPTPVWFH

Chain of Human CD44v6 iso4-Fc (human) (P16070 other isoform, or with tags, fused parts or gaps limits assumed): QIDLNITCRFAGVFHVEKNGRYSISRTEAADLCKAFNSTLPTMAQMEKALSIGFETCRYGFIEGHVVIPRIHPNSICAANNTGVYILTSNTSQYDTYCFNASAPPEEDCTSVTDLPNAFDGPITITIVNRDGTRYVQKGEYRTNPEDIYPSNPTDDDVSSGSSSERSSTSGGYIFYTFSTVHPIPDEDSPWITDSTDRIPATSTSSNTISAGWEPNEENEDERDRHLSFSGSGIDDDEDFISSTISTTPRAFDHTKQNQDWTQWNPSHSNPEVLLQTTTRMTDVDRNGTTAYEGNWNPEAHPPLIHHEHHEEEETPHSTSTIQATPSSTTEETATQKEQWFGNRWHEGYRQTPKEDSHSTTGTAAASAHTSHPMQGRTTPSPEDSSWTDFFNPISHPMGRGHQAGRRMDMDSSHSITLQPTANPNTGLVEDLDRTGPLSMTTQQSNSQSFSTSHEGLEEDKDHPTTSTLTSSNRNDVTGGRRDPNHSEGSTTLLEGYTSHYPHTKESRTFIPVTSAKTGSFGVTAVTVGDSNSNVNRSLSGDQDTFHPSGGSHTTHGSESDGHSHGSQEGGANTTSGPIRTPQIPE

On to BIWA-4 IgG4 S228P (antibody), for which the Kd worked out at 0.3 nM in experiment [1], 0.88 nM in the experiment with Human v6-peptide (human) [4] and 48 nM in experiment [5]. The figures for the koff (with Human v6-peptide (human) [2]; in experiment [3]) were 0.00017 s⁻¹ and 0.00031 s⁻¹, respectively. The kon with Human v6-peptide (human) [2] came out at 190000 M⁻¹ s⁻¹; in experiment [3], 6500 M⁻¹ s⁻¹.

Herceptin (antibody) displayed a Kd in the experiment with FcyR1 of 0.18 nM.
